The values that follow come from US20250320281A1.

By IC50 is commonly meant the concentration at which inhibition is half-maximal.

Holding throughout (assay): cell-based or functional assay
The target in test [1] is HIV-1 Env of isolate Du172 (clade C pseudovirus) (HIV-1).
Test [2] has as its target HIV-1 Env of isolate ZM233 (clade C pseudovirus) (HIV-1).
The target in test [3] is HIV-1 93UG077 Env (pseudovirus) (HIV-1 isolate 93UG077 (clade A)).
Test [4] concerns the target HIV-1 APV6 Env (pseudovirus) (HIV-1 isolate APV6 (clade B)).
Test [5] has as its target HIV-1 MGRM-C-026 Env (pseudovirus) (HIV-1 isolate MGRM-C-026 (clade C)).
For test [6], the target named is HIV-1 NL43 Env (pseudovirus) (HIV-1 isolate NL43 (clade B)).
The target in test [7] is HIV-1 Env of isolate MG RM-D-026 (HIV-1).
Test [8] has as its target HIV-1 Env of isolate MG RM-D-028 (HIV-1).
In test [9] the target is HIV-1 Env of isolate MG RM-D-029 (HIV-1).
The target of test [10] is HIV-1 Env of isolate MGRM-F1-006 (HIV-1).
Test [11] concerns the target HIV-1 Env of isolate MGRM-F1-012 (HIV-1).
In test [12] the target is HIV-1 Env of pseudovirus MGRM-AE-007 (subtype AE) (HIV-1).
In test [13] the target is HIV-1 Env of pseudovirus MGRM-AG-002 (subtype AG) (HIV-1).
Test [14] addresses HIV-1 Env of pseudovirus MGRM-AG-005 (subtype AG) (HIV-1).
For test [15], the target named is HIV-1 Env of pseudovirus MGRM-AG-006 (subtype AG) (HIV-1).
Test [16] deals with HIV-1 Env of pseudovirus MGRM-AG-013 (subtype AG) (HIV-1).
In test [17] the target is HIV-1 92RW020 envelope glycoprotein (Env) on pseudovirus (HIV-1 isolate 92RW020 (clade A)).
The target of test [18] is HIV-1 92TH021 envelope glycoprotein (Env) on pseudovirus (HIV-1 isolate 92TH021 (clade AE)).
Test [19] deals with HIV-1 92UG024 envelope glycoprotein (Env) on pseudovirus (HIV-1 isolate 92UG024 (clade D)).
The target in test [20] is HIV-1 MGRM-C-026 envelope glycoprotein (Env) on pseudovirus (HIV-1 isolate MGRM-C-026 (clade C)).
Test [21] concerns the target HIV-1 MGRM-C-027 envelope glycoprotein (Env) on pseudovirus (HIV-1 isolate MGRM-C-027 (clade C)).
The target in test [22] is HIV-1 MGRM-D-018 envelope glycoprotein (Env) on pseudovirus (HIV-1 isolate MGRM-D-018 (clade D)).
The target of test [23] is HIV-1 Env of isolate APV13 (HIV-1).
Test [24] deals with HIV-1 Env of isolate MGRM-Chronic-B-001 (HIV-1).
Test [25] deals with HIV-1 Env of isolate MGRM-Chronic-B-003 (HIV-1).
The target of test [26] is HIV-1 Env of isolate MGRM-Chronic-B-011 (HIV-1).
For test [27], the target named is HIV-1 Env of isolate MGRM-F1-014 (clade F), on pseudovirus (HIV-1).
Test [28] addresses HIV-1 Env of isolate MGRM-F1-021 (clade F pseudovirus) (HIV-1).
The target in test [29] is HIV-1 Env of pseudovirus 93UG077 (subtype A) (HIV-1).
In test [30] the target is HIV-1 Env of pseudovirus MGRM-A-008 (subtype A) (HIV-1).
The target in test [31] is HIV-1 92BR020 Env (HIV-1).
The target in test [32] is HIV-1 93UG077 Env (HIV-1).
Another test concerns the target HIV-1 JRFL Env (HIV-1).
For test [33], the target named is HIV-1 MGRM-A-010 Env (HIV-1).
Test [34] has as its target HIV-1 MGRM-C-028 Env (HIV-1).
The target in a further test is aMLV envelope (aMLV).

Sequence of 1443_C16 (PG16) (TCN-116) (antibody) (VH): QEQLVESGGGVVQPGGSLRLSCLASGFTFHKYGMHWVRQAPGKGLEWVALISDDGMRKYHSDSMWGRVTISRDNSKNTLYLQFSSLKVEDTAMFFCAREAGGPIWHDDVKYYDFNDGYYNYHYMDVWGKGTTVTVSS
Sequence of 1443_C16 (PG16) (TCN-116) (antibody) (VL): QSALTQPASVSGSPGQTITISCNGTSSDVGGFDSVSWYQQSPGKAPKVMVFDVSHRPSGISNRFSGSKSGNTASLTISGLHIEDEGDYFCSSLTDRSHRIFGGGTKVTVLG

As for 1443_C16 (PG16) (TCN-116) (antibody), the IC50 (neutralization, TZM-bl pseudovirus assay) in test [1] and in test [2] was under 0.01 µg/mL in each case.

In the case of 5123_A06 (PGT-125) (antibody), in test [3], the Neutralization by PGT-125, IC50 was found to be 0.0262 µg/mL; the Neutralization by PGT-125, IC80 turned out to be 0.0926 µg/mL; the Neutralization by PGT-125, IC90 is 0.206 µg/mL; the Neutralization by PGT-125, IC95 was determined as 0.487 µg/mL. For the same substance, in test [4], the Neutralization by PGT-125, IC50 was determined as 0.0359 µg/mL; the Neutralization by PGT-125, IC80 was 0.133 µg/mL; the Neutralization by PGT-125, IC90 came to 0.288 µg/mL; the Neutralization by PGT-125, IC95 was found to be 0.597 µg/mL. In addition, in test [5], the Neutralization by PGT-125, IC50 was found to be 0.0106 µg/mL; the Neutralization by PGT-125, IC80 turned out to be 0.035 µg/mL; the Neutralization by PGT-125, IC90 was 0.0705 µg/mL; the Neutralization by PGT-125, IC95 is 0.134 µg/mL. In test [6], this substance gave a Neutralization by PGT-125, IC50 of over 10 µg/mL; a Neutralization by PGT-125, IC80 of over 10 µg/mL; a Neutralization by PGT-125, IC90 of over 10 µg/mL; a Neutralization by PGT-125, IC95 of over 10 µg/mL.

As for VRC01 (antibody), the IC50 came out at 0.435 µg/mL in test [7]; 0.377 µg/mL in test [8]; 3.22 µg/mL in [9]; 2.86 µg/mL in test [10]; 0.488 µg/mL in [11]. Besides, the IC50, pseudovirus neutralization in [12] was determined as 0.835 µg/mL; in [13] it was 0.95 µg/mL; in [14], 0.091 µg/mL; in test [15] it was 0.344 µg/mL; in test [16], 0.197 µg/mL.

1496_C09 (PG9) (TCN-109) (antibody): the neutralization IC50 in test [17] was determined as 0.161 µg/mL; in [18] it was 0.103 µg/mL; in test [19], 1.91 µg/mL; in [20] it was 0.113 µg/mL; in test [21], 2.45 µg/mL; in test [22], 0.0444 µg/mL. The neutralization IC80 in [17] was 1.04 µg/mL; in test [18] it was 0.448 µg/mL; in test [22], 0.18 µg/mL. Besides, the neutralization IC90 in test [17] was determined as 3.4 µg/mL; in test [18], 1.07 µg/mL; in [22], 0.43 µg/mL. For the same substance, the neutralization IC95 in [18] stood at 2.43 µg/mL; in test [22], 1.05 µg/mL.

For the substance PGV04 (antibody), the IC50 (µg/mL), pseudovirus neutralization was found to be 1.23 µg/mL in test [23]; 0.048 µg/mL in test [24]; 0.258 µg/mL in test [25]; 0.497 µg/mL in [26]; 0.02 µg/mL in [27]; 0.031 µg/mL in test [28]. Also, the IC50, pseudovirus neutralization came to 0.083 µg/mL in [29] and 0.555 µg/mL in test [30].

Turning to 4877_D15 (PGT-122) (antibody), the Neutralization by PGT-122, IC50 in [31] was 0.0337 µg/mL; in test [32], 0.191 µg/mL; with HIV-1 JRFL Env (HIV-1) it was 0.0471 µg/mL; in test [33], 1.68 µg/mL; in test [34], 2.06 µg/mL; in the test with aMLV envelope (aMLV) it was over 10 µg/mL. The Neutralization by PGT-122, IC80 in [31] was 0.0929 µg/mL; in test [32] it was 0.931 µg/mL; in the test with HIV-1 JRFL Env (HIV-1), 0.166 µg/mL; in [33] it was over 10 µg/mL; in [34] it was over 10 µg/mL; in the test with aMLV envelope (aMLV) it was over 10 µg/mL. For the same substance, the Neutralization by PGT-122, IC90 is 0.168 µg/mL in test [31]; 2.1 µg/mL in test [32]; 0.342 µg/mL with HIV-1 JRFL Env (HIV-1); over 10 µg/mL in test [33]; over 10 µg/mL in [34]; over 10 µg/mL in the test with aMLV envelope (aMLV). The Neutralization by PGT-122, IC95 in test [31] was 0.289 µg/mL; in [32] it was 3.88 µg/mL; in the test with HIV-1 JRFL Env (HIV-1), 0.659 µg/mL; in test [33], over 10 µg/mL; in test [34], over 10 µg/mL; with aMLV envelope (aMLV), over 10 µg/mL.
